Columns and labels:
[1] = Example 3: leptin effect on body weight in normal HSD versus DIO prone rats; assay type: in vivo, rat; details: FIG. 9
Description: Normal, lean HSD rats were divided into two treatment groups. […] […] The DIO prone animals described herein appear resistant to the weight reducing effect of leptin.

[2] = Example 8: 24-week randomized, double-blind clinical study of pramlintide and metreleptin in overweight and obese subjects; assay type: in vivo, human; details: 4-week lead-in; all subjects received pramlintide 180 then 360 mcg BID; columns name the later randomization groups
Protocol: To evaluate inter alia the safety, tolerability and effect of the combination of an amylin agonist (pramlintide) and a leptin (metreleptin) on changes in body weight, a 24-week, randomized, double-blind, active-drug-controlled, multicenter study was conducted under USFDA approved protocols. Secondary objectives of the study were the determination of the pharmacokinetics of pramlintide and leptin, waist circumference, rate of change in body weight, and patient reported outcomes including for example without limitation perception of well-being related to weight change and mood. The study enrolled overweight and obese subjects with defined BMI ([…]), with enrollment statistics as provided in Table 2. […] Subjects treated with pramlintide/metreleptin lost an average of 25 pounds from the start of the 24-week study compared with an average of 17 pounds for subjects treated with pramlintide alone.
In an initial lead-in phase, all subjects received dietary instructions and treatment with pramlintide at 180 mcg BID for two weeks, followed by pramlintide at 360 mcg BID for two weeks. Subjects who completed the 4-week lead-in period and who lost 2-8 percent body weight during this period were eligible to continue the study. The term “enrolled” (Table 2) refers to subjects (N=177) receiving at least one dose of pramlintide during the lead-in period. […]

B1: murine leptin (protein, UniProt P41160 22-167, looked up)
Leptin: VPIQKVQDDTKTLIKTIVTRINDISHTQSVSAKQRVTGLDFIPGLHPILSLSKMDQTLAVYQQVLTSLPSQNVLQIANDLENLRDLLHLLAFSKSCSLPQTSGLQKPESLDGVLEASLYSTEVVALSRLQGSLQDILQQLDVSPEC
notes: murine leptin (Peprotech, catalog#450-31)
**Q.** Which “body weight, DIO prone animals” value ([1]; DIO prone rats, leptin dose printed 500 mg/kg/day) does the source give for B1 here?
**A.** Its value is “ineffective”.

**Q.** And the “body weight, normal HSD rats” value ([1]; normal, lean HSD rats, leptin 500 μg/kg/day, 14 days)?
**A.** The value was “significant and sustained reduction in body weight”.

**Q.** What about the “Mean Change in Body Weight (kg) over lead-in period” value [2] of the same molecule?
**A.** The value was -3.97 kg.

Source: patent publication US20100323955A1, “METHODS FOR TREATING OBESITY AND OBESITY RELATED DISEASES AND DISORDERS” (AMYLIN PHARMACEUTICALS, INC., priority 2007, published 2010)
